Laboratory results as given in article PMC3907296, “How a Retrotransposon Exploits the Plant's Heat Stress Response for Its Activation”.

Biological target: HSFA2 (Arabidopsis thaliana, UniProt O80982 1-345)
Experiment: competition EMSA; unlabeled HRE fragment, 200-fold excess, competes with labeled LTR; 10 mM Tris pH 7.5, 1 mM EDTA, 0.1 M KCl, 0.1 mM DTT, 5% glycerol, 0.01 mg/ml BSA; RT 30 min; 5% native PAGE, 0.5x TBE
Conditions: protein: recombinant; tags: C-terminal 6xHis (pET-24b, NdeI/XhoI); chain copies: 3; blunt

Sequence of HSFA2 (O80982 whole entry, the tested form may be a part): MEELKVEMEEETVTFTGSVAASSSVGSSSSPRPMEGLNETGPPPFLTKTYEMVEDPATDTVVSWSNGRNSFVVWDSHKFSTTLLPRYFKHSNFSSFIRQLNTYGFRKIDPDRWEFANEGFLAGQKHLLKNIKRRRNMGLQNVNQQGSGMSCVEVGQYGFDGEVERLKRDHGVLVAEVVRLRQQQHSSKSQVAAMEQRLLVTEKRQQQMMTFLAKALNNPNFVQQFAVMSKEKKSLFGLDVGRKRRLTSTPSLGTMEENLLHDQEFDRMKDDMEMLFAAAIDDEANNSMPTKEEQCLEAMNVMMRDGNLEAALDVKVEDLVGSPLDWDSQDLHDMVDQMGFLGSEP

B1: ONSEN LTR complete HRE, 51 bp (dsDNA)
DNA 1: CCACCTCCTTAAAAGATTCTAGAAATTTTCTAGAATCATCTTCCACCTCCT
DNA 2: AGGAGGTGGAAGATGATTCTAGAAAATTTCTAGAATCTTTTAAGGAGGTGG
  binding result: binds
